Measurements published in patent US9844563B2, “Compositions, kits, and methods to induce acquired cytoresistance using stress protein inducers” (FRED HUTCHINSON CANCER RESEARCH CENTER, priority 2014, dated 2017).

Key:
heme oxygenase 1 (HO-1) = assay: Renal cortical induction of HO-1 by FeS, SnPP and B12 (ELISA, RT-PCR); assay type: in vivo, mice
Description: Effects of FeS, SnPP, and B12 on renal cortical induction of heme oxygenase 1 (HO-1). The following experiments assessed the effects of FeS, SnPP, and B12 on the possible induction of the cytoprotective protein HO-1. To this end, mice were injected with each of these agents, as noted above. Either 4 or 18 hrs later, they were anesthetized and the kidneys were removed through a midline abdominal incision. The renal cortices were dissected on ice and then extracted for protein and mRNA. The samples were then assayed for HO-1 protein by ELISA, and HO-1 mRNA by RT-PCR, factored by GAPDH levels. Five normal mice provided control values.

[1] = Maleate model of AKI (FeS, SnPP, FeS+SnPP); assay type: in vivo, mice; conditions: IV 1 mg FeS and/or 1 μmole SnPP 18 hrs before IP Na maleate 800 mg/Kg; 18 hrs later
Text: Effects of Fe sucrose (FeS)/tin protoporphyrin (SnPP) on AKI severity. Maleate model of AKI. When injected into rodents, maleate undergoes relatively selective proximal tubule cell uptake via organic anion transporters. Once intracellular accumulation occurs, maleate is a preferred substrate for succinyl-CoA:3-oxoacid CoA transferase. […] Ample levels of CoA are essential for fatty acid “activation”, allowing for their subsequent metabolism through the Krebs cycle, yielding ATP. In the absence of this process, proximal tubule ATP depletion and cell injury result. Additionally, maleate conjugates the sulfhydryl group of glutathione (GSH), culminating in GSH depletion and potential oxidant tubular stress.
The following experiment tested whether FeS, SnPP or combined FeS+SnPP can mitigate this form of acute kidney injury (AKI). Twenty seven mice were subjected to 200 μL IV tail injections of one of the following: 1) vehicle (phosphate buffered saline, PBS; n, 10); 2) 1 mg FeS (American Regent (Shirley, N.Y.; n, 3); 3) 1 μmole SnPP (Frontier Scientific, Logan, Utah; n 7), or FeS+SnPP, n, 7). Eighteen hrs later, all mice received an IP injection of Na maleate (800 mg/Kg; in 500 ul of PBS). […] The severity of kidney injury was assessed by determining plasma blood urea nitrogen (BUN) and plasma creatinine (PCr) concentrations.

HK-2 cells = assay: HK-2 cell injury by MTT assay; assay type: cell-based; conditions: equimolar Na nitrite added to 10 mg/ml myoglobin, 18 hr incubation
Description: HK-2 cells (a proximal tubule cell line derived from normal human kidney) were incubated in keratinocyte serum free medium either under normal (control) conditions or in the presence of 10 mg/mL horse skeletal muscle myoglobin or nitrited myoglobin (produced by equimolar Na nitrite addition to 10 mg/ml myoglobin). After 18 hr incubations, the severity of cell injury (% cell death) was assessed by MTT assay. Myoglobin induced 40% cell death (40% decrease in MTT cell uptake), compared to control incubated cells. Nitrite binding to myoglobin reduced cell death by 75%. Thus, nitrite binding is able to reduce myoglobin's cytotoxic effects.

[2] = Serum creatinine after 2 hr subcutaneous infusion of N-myoglobin (constant SnPP); assay type: in vivo, mice; conditions: 2 hr subcutaneous infusion 1, 3, 6, 12, or 25 mg/Kg, SnPP constant 1 μmole; 18 hrs later
Description: Mice were subjected to a 2 hr subcutaneous infusion of 1, 3, 6, 12, or 25 mg/Kg of nitrited myoglobin (holding SnPP at a constant dose of 1 μmole). Eighteen hrs later, potential renal injury was assessed by measuring serum creatinine concentrations.
An obvious concern by applying this prophylactic strategy to patients is potential renal and/or extrarenal toxicities. […] Furthermore, it was previously documented in a cell culture system that nitrite addition markedly reduces myoglobin's cytotoxic effects by 75% (unpublished data, 2014). To assess the potential in vivo margin of safety for N-Mgb+SnPP (see Supplemental FIGs.), the maximal amount of N-Mgb that could be given to mice before nephrotoxicity was observed was tested. Up to 25 times the employed N-Mgb dose (with a constant SnPP dose) could be administered (over 2 hours) without induction of nephrotoxicity (normal BUN and creatinine, 18 hours later).

HO-1 [3] = assay: Renal cortical HO-1 mRNA (RT-PCR) and protein (ELISA) after N-Mgb, SnPP or both; assay type: in vivo, mice
Description: (§1) Thirty-two mice were divided into 4 equal groups: (1) control mice; (2) mice treated with 1 mg of N-Mgb injection (as a bolus through the tail vein); (3) mice treated with […] of SnPP (via tail vein); and (4) mice treated with combined N-Mgb 1 SnPP. After either 4 hours (n=16) or 18 hours (n=16), the mice were deeply anesthetized with pentobarbital (50 mg/kg), the abdomen was opened through a midline abdominal incision, and the kidneys were removed. To determine potential effects on extrarenal organs, a liver lobe and the heart were also removed. The tissues were iced and then extracted for protein and RNA (RNeasy Plus Mini; Qiagen, Valencia, Calif.) and subjected to enzyme linked immunosorbent assay (ELISA) and reverse transcriptase polymerase chain reaction (RT-PCR) for HO-1, haptoglobin, and IL-10 protein and messenger RNAs (mRNAs). Zager et al. J Am Soc Nephrol 2014;25:998-1012; Zager et al. Am J Physiol 2012;303:F139-48. As an assessment of renal function, control mice and the 18 hour after N-Mgb+SnPP—treated mice had blood urea nitrogen (BUN) and plasma creatinine levels measured. Additionally, transverse 10% formalin fixed kidney sections ([…]) were cut and stained with hematoxylin and eosin (H&E) and periodic acid Schiff (PAS) to further assess potential injury.

Haptoglobin [4] = assay: Renal cortical haptoglobin mRNA and protein after N-Mgb, SnPP or both; assay type: in vivo, mice
Description: as §1

IL-10 [5] = assay: Renal cortical IL-10 mRNA and protein after N-Mgb, SnPP or both; assay type: in vivo, mice
Description: as §1

HO-1 [6] = assay: Liver HO-1 mRNA and protein after N-Mgb, SnPP or both; assay type: in vivo, mice
Description: as §1

Haptoglobin [7] = assay: Liver haptoglobin mRNA and protein after N-Mgb, SnPP or both; assay type: in vivo, mice
Description: as §1

IL-10 [8] = assay: Liver IL-10 mRNA and protein after N-Mgb, SnPP or both; assay type: in vivo, mice
Description: as §1

HO-1 [9] = assay: Cardiac HO-1 mRNA and protein after N-Mgb, SnPP or both; assay type: in vivo, mice
Description: as §1

Haptoglobin [10] = assay: Cardiac haptoglobin mRNA and protein after N-Mgb, SnPP or both; assay type: in vivo, mice
Description: as §1

IL-10 [11] = assay: Cardiac IL-10 mRNA and protein after N-Mgb, SnPP or both; assay type: in vivo, mice
Description: as §1

[12] = Glycerol model of rhabdomyolysis-induced AKI; assay type: in vivo, mice; conditions: IV pretreatment 18 hours before glycerol; 18 hours after glycerol
Description: Assessments of cytoresistance. Glycerol model of rhabdomyolysis-induced AKI. Twenty mice were divided into 4 equal groups (controls, mice treated with N-Mgb, SnPP, and mice treated with N-Mgb+SnPP tail vein injections) as described previously. 18 hours later, the mice were briefly anesthetized with isoflurane and immediately injected with 9 mL/kg of 50% glycerol, administered in equally divided doses into each hind limb. At 18 hours after glycerol injection, the mice were anesthetized with pentobarbital, the abdomen was opened, a blood sample for BUN and creatinine assessments was obtained from the vena cava, and the kidneys were resected. The control post-glycerol group and the N-Mgb+SnPP—pretreated glycerol group had kidney sections stained with H&E.
Calculations and statistics. All values are given as the mean […] standard error of the mean. Statistical comparisons were made by unpaired Student's t test. If multiple comparisons were made, the Bonferroni correction was applied. The severity of renal histologic injury in the glycerol AKI model was graded on a […] (least to most severe tubular necrosis and cast formation observed). The histologic results were compared by Wlcoxon rank sum test. Statistical significance was taken as a P value of <0.05.

[13] = renal cortex, 4 h after Rx treatment

cyanocobalamin [vitamin B12]
renal cortical HO-1 protein levels (heme oxygenase 1 (HO-1); 4 hr post IV injection): marked HO-1 protein increases
renal cortical HO-1 protein levels (heme oxygenase 1 (HO-1); 18 hr time point): persists for 18 hrs

Fe sucrose [FeS]
reductions in BUN/PCr concentrations, maleate-induced AKI [1]: Neither SnPP alone nor FeS alone significantly altered the severity of renal injury
renal cortical HO-1 protein levels (heme oxygenase 1 (HO-1); 4 hr post IV injection): marked HO-1 protein increases
renal cortical HO-1 protein levels (heme oxygenase 1 (HO-1); 18 hr time point): remained elevated at the 18 hr time point, particularly in the case of FeS administration
renal cortical HO-1 protein levels (heme oxygenase 1 (HO-1); 18 hr time point, listed as Fe sucrose): persists for 18 hrs

B1: N-Mgb: horse skeletal muscle myoglobin converted into a nitrited form by equimolar Na nitrite (protein, UniProt P68082 2-154, looked up)
Myoglobin: GLSDGEWQQVLNVWGKVEADIAGHGQEVLIRLFTGHPETLEKFDKFKHLKTEAEMKASEDLKKHGTVVLTALGGILKKKGHHEAELKPLAQSHATKHKIPIKYLEFISDAIIHVLHSKHPGDFGADAQGAMTKALELFRNDIAAKYKELGFQG
modifications: nitrited with sodium nitrite
reduction of myoglobin-induced cell death by nitrite binding (HK-2 cells): 75%
serum creatinine concentrations (potential renal injury) [2]: No significant increase
increase in renal HO-1 mRNA (HO-1 [3]; 4 hours after IV injection, vs controls): only modest increases
Kidney mRNA cortex HO-1 (HO-1 [3]; 18 h after Rx treatment): 0.58 ± 0.18
Kidney protein HO-1 (HO-1 [3]; 18 h after Rx treatment): 30 ± 6
increase in renal HO-1 protein (HO-1 [3]; 18 hours post-treatment, vs control values): only relatively small HO-1 protein increases
Kidney HO-1 protein (HO-1 [3]; [13]): 36.1 ± 2.9
Kidney mRNA HO-1 (HO-1 [3]; [13]): 3.38 ± 0.38
Kidney mRNA cortex Haptoglobin (Haptoglobin [4]; 18 h after Rx treatment): 0.24 ± 0.04
Kidney protein Haptoglobin (Haptoglobin [4]; 18 h after Rx treatment): 183.8 ± 20.4
increase in renal cortical haptoglobin protein levels (Haptoglobin [4]; 18 hours after injections): comparably increased
Kidney Haptoglobin (protein) (Haptoglobin [4]; [13]): 17.6 ± 1^
Kidney mRNA Haptoglobin (Haptoglobin [4]; [13]): 1.94 ± 0.31
increase in renal IL-10 mRNA (IL-10 [5]; 4 hours after injection): either minimal or no impact
Kidney mRNA cortex IL-10 (IL-10 [5]; 18 h after Rx treatment): 0.43 ± 0.10
Kidney protein IL-10 (IL-10 [5]; 18 h after Rx treatment): 292 ± 54
increase in renal IL-10 protein (IL-10 [5]; 18 hours after injection): absence of IL-10 protein increases
Kidney IL-10 (protein) (IL-10 [5]; [13]): 265 ± 54
Kidney mRNA IL-10 (IL-10 [5]; [13]): 1.45 ± 0.6
Liver mRNA HO-1 (HO-1 [6]; 4 h after Rx treatment): 1.83 ± 0.33
Liver protein HO-1 protein (HO-1 [6]; 4 h after Rx treatment): 17 ± 2
Liver mRNA HO-1 (HO-1 [6]; 18 h after Rx treatment): 0.82 ± 0.07
Liver protein HO-1 protein (HO-1 [6]; 18 h after Rx treatment): 14.9 ± 0.3
Liver mRNA Haptoglobin (Haptoglobin [7]; 4 h after Rx treatment): 0.98 ± 0.1
Liver protein Haptoglobin (Haptoglobin [7]; 4 h after Rx treatment): 359.5 ± 39.6
Liver mRNA Haptoglobin (Haptoglobin [7]; 18 h after Rx treatment): 0.91 ± 0.07
Liver protein Haptoglobin (Haptoglobin [7]; 18 h after Rx treatment): 358.8 ± 32.8
Liver mRNA IL-10 (IL-10 [8]; 4 h after Rx treatment): 0.67 ± 0.46
Liver protein IL-10 (IL-10 [8]; 4 h after Rx treatment): 286 ± 32
Liver mRNA IL-10 (IL-10 [8]; 18 h after Rx treatment): 0.06 ± 0.02
Liver protein IL-10 (IL-10 [8]; 18 h after Rx treatment): 5988 ± 549
Cardiac Protein HO-1 (HO-1 [9]; 4 h after Rx treatment): 1.64 ± 0.19
Cardiac mRNA HO-1 (HO-1 [9]; 4 h after Rx treatment): 0.09 ± 0.01
Cardiac mRNA HO-1 (HO-1 [9]; 18 h after Rx treatment): 0.08 ± 0.01
Cardiac mRNA Haptoglobin (Haptoglobin [10]; 4 h after Rx treatment): 0.75 ± 0.10
Cardiac protein Haptoglobin (Haptoglobin [10]; 4 h after Rx treatment): 40.4 ± 8.6
Cardiac mRNA Haptoglobin (Haptoglobin [10]; 18 h after Rx treatment): 0.53 ± 0.21
Cardiac protein Haptoglobin (Haptoglobin [10]; 18 h after Rx treatment): 249.6 ± 15.0
Cardiac mRNA IL-10 (IL-10 [11]; 4 h after Rx treatment): 0.86 ± 0.11
Cardiac protein IL-10 (IL-10 [11]; 4 h after Rx treatment): 21 ± 12
Cardiac mRNA IL-10 (IL-10 [11]; 18 h after Rx treatment): 0.67 ± 0.10
Cardiac protein IL-10 (IL-10 [11]; 18 h after Rx treatment): 14.5 ± 10^
protection against glycerol-induced AKI (BUN/creatinine levels) [12]: modest protection
